This data set can be described thus: self-splicing fitness, log relative to wild type (ln ratio); higher = more splicing; Tetrahymena group I intron in knt gene, E. coli kanamycin selection, DiMSum; sequences stand for … in CUCUCU…GGAGGGAAAAGUUAUCAGGCAUGCACCUGGUAGCUAGUCUUUAAACCAAUAGAUUGCAUCGGUUUAAAAGGCAAGACCGUCAAAUUGCGGGAAAGGGGUCAACAGCCGUUCAGUACCAAGUCUCAGGGGAAACUUUGAGAUGGCCUUGCAAAGGGUAUGGUAAUAAGCUGACGGACAUGGUCCUAACCACGCAGCCAAGUCCUAAGUCAACAGAUCUUCUGUUGAUAUGGAUGCAGUUCACAGACUAAAUGUCGGUCGGGGAAGAUGUAUUCUUCUCAUAAGAUAUAGUCGGACCUCUCCUUAAUGGGAGCUAGCGGAUGAAGUGAUGCAACACUGGAGCCGCUGGGAACUAAUUUGUAUGCGAAAGUAUAUUGAUUAGUUUUGGAGUACUCGUGGUCG
In a few lines: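 Pooled colonies went to amplicon sequencing on an Illumina HiSeq 2500 after six replicate transformations. The plates were LB agar with 100 μg/mL carbenicillin, 50 μM IPTG and 0.2% rhamnose, with or without 25 μg/mL kanamycin, incubated overnight at 37°C or 30°C. The E. coli BL21(DE3) library had all eight P1ex-region intron nucleotides randomised, the intron placed in the knt kanamycin-resistance gene on pET-22b(+). DiMSum fitness is the error-weighted combination of replicate fold changes, kanamycin against none, normalised to wild type.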

± gives the uncertainty stated by the source.

Regarding ACAGAGCAAUAUUACGAUUU, the “self-splicing fitness (ln)” value runs as follows: (30 °C) -3.03 ± 0.14; (37 °C) -1.71 ± 0.13.

Take ACCCAGCAAUAUUACGGCUG: the “self-splicing fitness (ln)” value reads like this: (30 °C) -3.68 ± 0.2; (37 °C) -2.06 ± 0.18.

On to UAACAGCAAUAUUACGGAUA, for which the “self-splicing fitness (ln)” value was -0.969 ± 0.088 (30 °C) and -0.486 ± 0.1 (37 °C).

Take GCGUAGCAAUAUUACGCACU: the “self-splicing fitness (ln)” value (30 °C) is -3.02 ± 0.24 and the “self-splicing fitness (ln)” value (37 °C) amounted to 0.255 ± 0.2.

With CCGAAGCAAUAUUACGGCGG, the “self-splicing fitness (ln)” value was -3.48 ± 0.15 (30 °C) and -2.15 ± 0.17 (37 °C).

UUCAAGCAAUAUUACGCCUG: the “self-splicing fitness (ln)” value (37 °C) is -1.64 ± 0.34.

Consider UAAGAGCAAUAUUACGCCCA, for which the “self-splicing fitness (ln)” value (30 °C) is -2.62 ± 0.26 and the “self-splicing fitness (ln)” value (37 °C) was -2.09 ± 0.41.

As for AGCAAGCAAUAUUACGAAUC, the “self-splicing fitness (ln)” value is -4.48 ± 0.42 (30 °C) and -1.81 ± 0.2 (37 °C).

For the sequence ACCCAGCAAUAUUACGUUGA, the “self-splicing fitness (ln)” value (30 °C) is -1.66 ± 0.073 and the “self-splicing fitness (ln)” value (37 °C) was -1.03 ± 0.075.

Take UGAUAGCAAUAUUACGGAAC: the “self-splicing fitness (ln)” value (37 °C) was -1.21 ± 0.42.

In the case of UUCCAGCAAUAUUACGGACA, the “self-splicing fitness (ln)” value is -0.469 ± 0.068 (30 °C) and -0.0722 ± 0.077 (37 °C).

As for CCCUAGCAAUAUUACGACCA, the “self-splicing fitness (ln)” value was -3.35 ± 0.24 (30 °C) and -3.33 ± 0.27 (37 °C).

Take UAUAAGCAAUAUUACGCUGU: the “self-splicing fitness (ln)” value (30 °C) is -2.45 ± 0.2 and the “self-splicing fitness (ln)” value (37 °C) is -3.32 ± 0.35.

For the sequence GGUGAGCAAUAUUACGAAUG, the “self-splicing fitness (ln)” value (30 °C) was -3.14 ± 0.29 and the “self-splicing fitness (ln)” value (37 °C) is -2.36 ± 0.5.

Turning to AGGAAGCAAUAUUACGUGGC, the “self-splicing fitness (ln)” value (37 °C) is -3.3 ± 0.43.

In the case of GAGGAGCAAUAUUACGAGUA, the “self-splicing fitness (ln)” value (37 °C) is -1.51 ± 0.37.

With UGGUAGCAAUAUUACGCCAU, the “self-splicing fitness (ln)” value (37 °C) is -1.09 ± 0.48.

On to CUGGAGCAAUAUUACGUGAA, for which the “self-splicing fitness (ln)” value runs as follows: (30 °C) -3.42 ± 0.22; (37 °C) -2.01 ± 0.16.

Regarding AGUCAGCAAUAUUACGCGCC, the “self-splicing fitness (ln)” value runs as follows: (30 °C) -0.491 ± 0.1; (37 °C) -0.228 ± 0.11.

With AAUAAGCAAUAUUACGACAA, the “self-splicing fitness (ln)” value is, setting by setting: (30 °C) -0.398 ± 0.13; (37 °C) -0.323 ± 0.12.

In the case of UGCAAGCAAUAUUACGUCAC, the “self-splicing fitness (ln)” value (30 °C) is -2.88 ± 0.47 and the “self-splicing fitness (ln)” value (37 °C) is -2.27 ± 0.24.

In the case of GUGCAGCAAUAUUACGUUGA, the “self-splicing fitness (ln)” value was -1.49 ± 0.13 (30 °C) and -0.806 ± 0.14 (37 °C).

UUUAAGCAAUAUUACGUCAA: the “self-splicing fitness (ln)” value is -1.43 ± 0.16 (30 °C) and -0.273 ± 0.14 (37 °C).

Turning to AGGCAGCAAUAUUACGCAUC, the “self-splicing fitness (ln)” value (30 °C) is -3.99 ± 0.19 and the “self-splicing fitness (ln)” value (37 °C) was -1.04 ± 0.11.

As for UACGAGCAAUAUUACGUUCU, the “self-splicing fitness (ln)” value was -2.38 ± 0.14 (30 °C) and -2.35 ± 0.16 (37 °C).

With ACAUAGCAAUAUUACGAAUC, the “self-splicing fitness (ln)” value by setting is: (30 °C) -3.23 ± 0.2; (37 °C) -2.78 ± 0.28.

Consider GCUAAGCAAUAUUACGUCAU, for which the “self-splicing fitness (ln)” value was -1.7 ± 0.095 (30 °C) and 0.727 ± 0.12 (37 °C).

UCUGAGCAAUAUUACGAGAC: the “self-splicing fitness (ln)” value (30 °C) is -2.52 ± 0.17.

For the sequence GGCCAGCAAUAUUACGUGUG, the “self-splicing fitness (ln)” value was -1.15 ± 0.051 (30 °C) and -0.323 ± 0.066 (37 °C).

On to CAGUAGCAAUAUUACGACGG, for which the “self-splicing fitness (ln)” value was -0.119 ± 0.085 (30 °C) and 0.411 ± 0.11 (37 °C).

On to UGUAAGCAAUAUUACGACUA, for which the “self-splicing fitness (ln)” value (30 °C) was 0.00851 ± 0.12 and the “self-splicing fitness (ln)” value (37 °C) is 0.0364 ± 0.14.

As for UCGGAGCAAUAUUACGUGUU, the “self-splicing fitness (ln)” value was -3.26 ± 0.24 (30 °C) and -2.25 ± 0.26 (37 °C).

ACAUAGCAAUAUUACGGCGA: the “self-splicing fitness (ln)” value is -0.475 ± 0.09 (30 °C) and -0.0687 ± 0.1 (37 °C).

In the case of UGGGAGCAAUAUUACGCAUG, the “self-splicing fitness (ln)” value runs as follows: (30 °C) -3.28 ± 0.35; (37 °C) -0.201 ± 0.22.

CCCCAGCAAUAUUACGGGUU: the “self-splicing fitness (ln)” value (30 °C) is -3.63 ± 0.11 and the “self-splicing fitness (ln)” value (37 °C) was -1.85 ± 0.092.

Turning to AGACAGCAAUAUUACGUUGC, the “self-splicing fitness (ln)” value (30 °C) is -3.73 ± 0.24 and the “self-splicing fitness (ln)” value (37 °C) is -3.26 ± 0.37.

As for UCGAAGCAAUAUUACGGAGU, the “self-splicing fitness (ln)” value is -3.99 ± 0.28 (30 °C) and -1.03 ± 0.15 (37 °C).

Take UCCCAGCAAUAUUACGUAUC: the “self-splicing fitness (ln)” value by setting is: (30 °C) -3.32 ± 0.29; (37 °C) -1.35 ± 0.2.

As for GAUGAGCAAUAUUACGUAAC, the “self-splicing fitness (ln)” value was -1.63 ± 0.12 (30 °C) and -1.9 ± 0.3 (37 °C).

Take GGUAAGCAAUAUUACGUAUA: the “self-splicing fitness (ln)” value is, setting by setting: (30 °C) -1.77 ± 0.21; (37 °C) -1.68 ± 0.26.

(Values after the supplement of paper PMC7877785.)
